# Results from US20090227507A1, “Angiotensin (1-7) Dosage Forms and Uses Thereof” (UNIVERSITY OF SOUTHERN CALIFORNIA, priority 2008, published 2009).
# Tests used:
# [1] = Renal laboratory values (serum creatinine, creatinine clearance, 24-hour urine) in healthy men; conditions: human, in vivo
# Procedure: USB003 was administered SC in the abdomen by a qualified study staff member 24 hours after the previous (Day 6) injection.
# Blood, urobilinogen, ketones, glucose, protein, microscopic examination of sediment, sodium, and potassium.
# [2] = Clinical chemistry in healthy men; conditions: for Potassium shift H-N, number of subjects / Potassium shift L-N, number of subjects / Potassium shift N-H, number of subjects / Potassium shift N-L, number of subjects: Chemistry; for AST/SGOT High/Low Normal/Abnormal: Subject 027, 200 μg/kg
# Procedure: (§1) Safety evaluations are based on AEs, PEs, vital signs, temperature, and laboratory results from baseline to study completion. Laboratory measurements were conducted by a local clinical laboratory. Using standard procedures, blood samples were drawn or urine collected from subjects for the following laboratory tests:
# Aspartate aminotransferase (AST), alanine aminotransferase (ALT), gamma, glutamyltranferase (GGT), creatinine, creatine kinase, sodium, potassium, bicarbonate (CO2), chloride, glucose, magnesium, calcium, inorganic phosphorous, blood urea nitrogen (BUN), total protein, albumin, total bilirubin, direct and indirect bilirubin, uric acid, and alkaline phosphatase,
# [3] = Adverse events, safety and tolerability in healthy men
# Text: Safety: Safety and tolerance evaluations included: • Tolerability including local reactions at the injection site. • Vital signs (blood pressure [BP], pulse rate [PR], respiration rate [RR], and temperature). • Routine clinical laboratory tests (hematology, serum biochemistry, and urinalysis). • Recording of adverse events (AE). • Electrocardiograms (ECG) at baseline and Day 8.
# Descriptive statistics were used to summarize adverse events (AEs). Descriptive statistics, with change from baseline, were used for clinical laboratory results, vital signs, and flow cytometry data. Shift tables were prepared for clinical laboratory results. Other data are listed.
# as §1
# All AEs were coded using the Medical Dictionary for Regulatory Activities Version 5.1 (MedDRA®).
# [4] = 200 μg/kg, N = 9, baseline to Day 8
# [5] = 300 μg/kg, N = 8, baseline to Day 8
substance,measurement,setting,value
Asp-Arg-Val-Tyr-Ile-His-Pro [USB003],"Creatinine Clearance shift L-N, number of subjects",[1]; 200 ug/kg,3
same,creatinine clearance,[1]; 200 ug/kg,increase
same,subjects with creatinine clearance shifted from low to normal,[1]; 200 ug/kg,3 of the 9
same,"Creatinine Clearance shift L-N, number of subjects",[1]; 300 ug/kg,2
same,"Creatinine Clearance shift N-L, number of subjects",[1]; 300 ug/kg,1
same,increase in creatinine clearance,[1]; 300 ug/kg,not observed
same,subjects with creatinine clearance shifted from low to normal,[1]; 300 ug/kg,2 of the 8
same,"ALT (SGPT) shift H-N, number of subjects",[2]; [4],— (“—” = 0)
same,"ALT (SGPT) shift L-N, number of subjects",[2]; [4],— (“—” = 0)
same,"ALT (SGPT) shift N-H, number of subjects",[2]; [4],1
same,"ALT (SGPT) shift N-L, number of subjects",[2]; [4],— (“—” = 0)
same,"AST (SGOT) shift H-N, number of subjects",[2]; [4],— (“—” = 0)
same,"AST (SGOT) shift L-N, number of subjects",[2]; [4],— (“—” = 0)
same,"AST (SGOT) shift N-H, number of subjects",[2]; [4],1
same,"AST (SGOT) shift N-L, number of subjects",[2]; [4],— (“—” = 0)
same,"BUN shift H-N, number of subjects",[2]; [4],— (“—” = 0)
same,"BUN shift L-N, number of subjects",[2]; [4],1
same,"BUN shift N-H, number of subjects",[2]; [4],— (“—” = 0)
same,"BUN shift N-L, number of subjects",[2]; [4],— (“—” = 0)
same,"Magnesium shift H-N, number of subjects",[2]; [4],— (“—” = 0)
same,"Magnesium shift L-N, number of subjects",[2]; [4],— (“—” = 0)
same,"Magnesium shift N-H, number of subjects",[2]; [4],— (“—” = 0)
same,"Magnesium shift N-L, number of subjects",[2]; [4],1
same,"Total CPK shift H-N, number of subjects",[2]; [4],1
same,"Total CPK shift L-N, number of subjects",[2]; [4],— (“—” = 0)
same,"Total CPK shift N-H, number of subjects",[2]; [4],— (“—” = 0)
same,"Total CPK shift N-L, number of subjects",[2]; [4],— (“—” = 0)
same,"ALT, Subject 009","[2]; 200 μg/kg, Day 8",103 IU/L
same,"AST, Subject 009","[2]; 200 μg/kg, Day 8",66 IU/L
same,"ALT, Subject 009","[2]; 200 μg/kg, Day 14",61 IU/L
same,"AST, Subject 009","[2]; 200 μg/kg, Day 14",29 IU/L
same,"ALT (SGPT) shift H-N, number of subjects",[2]; [5],— (“—” = 0)
same,"ALT (SGPT) shift L-N, number of subjects",[2]; [5],— (“—” = 0)
same,"ALT (SGPT) shift N-H, number of subjects",[2]; [5],— (“—” = 0)
same,"ALT (SGPT) shift N-L, number of subjects",[2]; [5],— (“—” = 0)
same,"AST (SGOT) shift H-N, number of subjects",[2]; [5],— (“—” = 0)
same,"AST (SGOT) shift L-N, number of subjects",[2]; [5],— (“—” = 0)
same,"AST (SGOT) shift N-H, number of subjects",[2]; [5],— (“—” = 0)
same,"AST (SGOT) shift N-L, number of subjects",[2]; [5],— (“—” = 0)
same,"BUN shift H-N, number of subjects",[2]; [5],— (“—” = 0)
same,"BUN shift L-N, number of subjects",[2]; [5],1
same,"BUN shift N-H, number of subjects",[2]; [5],— (“—” = 0)
same,"BUN shift N-L, number of subjects",[2]; [5],— (“—” = 0)
same,"Magnesium shift H-N, number of subjects",[2]; [5],— (“—” = 0)
same,"Magnesium shift L-N, number of subjects",[2]; [5],1
same,"Magnesium shift N-H, number of subjects",[2]; [5],— (“—” = 0)
same,"Magnesium shift N-L, number of subjects",[2]; [5],— (“—” = 0)
same,"Total CPK shift H-N, number of subjects",[2]; [5],— (“—” = 0)
same,"Total CPK shift L-N, number of subjects",[2]; [5],— (“—” = 0)
same,"Total CPK shift N-H, number of subjects",[2]; [5],— (“—” = 0)
same,"Total CPK shift N-L, number of subjects",[2]; [5],— (“—” = 0)
same,"Potassium shift H-N, number of subjects",[2]; [4],— (“—” = 0)
same,"Potassium shift L-N, number of subjects",[2]; [4],— (“—” = 0)
same,"Potassium shift N-H, number of subjects",[2]; [4],— (“—” = 0)
same,"Potassium shift N-L, number of subjects",[2]; [4],— (“—” = 0)
same,"Potassium shift H-N, number of subjects",[2]; [5],1
same,"Potassium shift L-N, number of subjects",[2]; [5],— (“—” = 0)
same,"Potassium shift N-H, number of subjects",[2]; [5],— (“—” = 0)
same,"Potassium shift N-L, number of subjects",[2]; [5],1
same,AST/SGOT High/Low Normal/Abnormal,[2]; Day 7 U (unscheduled),N
same,AST/SGOT High/Low Normal/Abnormal,[2]; Day 8,N
same,mean change from baseline on any serum chemistry evaluations,[2]; baseline to Day 4 or Day 8,no notable effects
same,incidence of ALT increase,[3]; 200 μg/kg,22.2%
same,incidence of body temperature increase,[3]; 200 μg/kg,0.0%
same,"ALT increased, Events",[3]; 200 μg/kg (N = 9),2
same,"ALT increased, Subjects",[3]; 200 μg/kg (N = 9),2 (22.2) N (%)
same,"AST increased, Events",[3]; 200 μg/kg (N = 9),1
same,"AST increased, Subjects",[3]; 200 μg/kg (N = 9),1 (11.1) N (%)
same,"Body temperature increased, Events",[3]; 200 μg/kg (N = 9),0
same,"Body temperature increased, Subjects",[3]; 200 μg/kg (N = 9),0 (0.0) N (%)
same,"Cyst NOS, Events",[3]; 200 μg/kg (N = 9),1
same,"Cyst NOS, Subjects",[3]; 200 μg/kg (N = 9),1 (11.1) N (%)
same,"Gastroesophageal reflux, Events",[3]; 200 μg/kg (N = 9),0
same,"Gastroesophageal reflux, Subjects",[3]; 200 μg/kg (N = 9),0 (0.0) N (%)
same,"Gastrointestinal disorders, Events",[3]; 200 μg/kg (N = 9),0
same,"Gastrointestinal disorders, Subjects",[3]; 200 μg/kg (N = 9),0 (0.0) N (%)
same,"Headache, Events",[3]; 200 μg/kg (N = 9),0
same,"Headache, Subjects",[3]; 200 μg/kg (N = 9),0 (0.0) N (%)
same,"Infections/Infestations, Events",[3]; 200 μg/kg (N = 9),0
same,"Injury, poisoning and procedural complications, Events",[3]; 200 μg/kg (N = 9),0
same,"Injury, poisoning and procedural complications, Subjects",[3]; 200 μg/kg (N = 9),0 (0.0) N (%)
same,"Investigations, Events",[3]; 200 μg/kg (N = 9),4
same,"Investigations, Subjects",[3]; 200 μg/kg (N = 9),2 (22.2) N (%)
same,"Joint sprain, Events",[3]; 200 μg/kg (N = 9),0
